According to the domain aggregation screens of Martell et al. (2025):

Assay: soluble fraction after stress (log2 fold change); higher = more stays soluble; pooled small domains, quantitative proteomics
Settings: stress: pH 4
In short: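 Custom libraries of small protein domains were pooled and measured with high-throughput quantitative proteomics after pH 4 stress. The read-out is the fold change in the amount of each domain that stays soluble after the acid stress, taken as a measure of aggregation propensity. Fold changes are on a log2 scale, and higher values mean more of the domain stayed soluble.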

Sequence | soluble fraction (log2)
HMLNIVTIFEEQFGRPLSPIELNIIKDWKESDYSDEMIVKALKEAVKSQVLNFRYVEGILNNWAKNG | -1.08
HMVRGNLAEELLKLREEEGISFQEAGARSGIARSTISQVVNQGLRLKPNQEESLWRVIEEVRGVKER | -0.0263
HMGNIALAIARFREMIAEDPNLQPVRLHLAMALMADHQDEAARGQLEKLRSDQLPDDIRKIVDDALAALR | -0.487
HMQYPSSLDSRAKQSLYDNLERNEILALALDNVIQSNKLDGWRDGGIKERKLRLAINNLLKNDEHTDNIME | -0.284
HMAAINTYQVRKIYAIAGALGMKSRDGDDALHDLVFGMTGKQHISGLTSAEAYDVIAELEKKQ | -0.223
HMSTKRQKELLEYVDRFITEHGYGPSYREIMNAIGYKSVSTVAIHIDGLIAKGYLRKRDNSARSLEVV | 0.249
HMDGPGDRLLIAIQENSMTQKKFAQLIGMSPNGLNSIIKGKKRLSRVLAIATERLTGVRADWILQNEQPK | -0.244
HMEPDDLTVIKGIGPVAAKDLNEQGIITFAQLAKLSDKDVAKIDEHMPFSADQIKDWREQAKELAK | 0.0725
HMDSSNLSLIAGVGPTIEKKLRAAGITSWEQIAAWTEADVAKYDEELNLRGRITRDEWIEQAKELLAGKPP | 0.309
HMSFDNIKVGYISETAGYVKGISLADANEYAKLNPDTEFIFIDGDEKVRFLTINEVNGLTPKNLLRSDP | -1.6
HMQMEYEKAIAYILDKIKSGELSIGSKLPAERVIADTLHIGRNSTREALSILHGMGMVDRVHGSGNYISEH | -0.111
HMTPADEAGNDLDIGQTVKILRRVSEGQYEVSYRGTTWQARALNAQAAVEPSFAVIGGKEGNILLVHL | -0.115
HMQMEDTDALLQVAKEVVAENQDTVEAYLGGREKAFASLIGAAMKKTRGKANPKVIRQLILDLIQ | -0.432
HMIPEILNGYTKWGDDEPFEDHAGPFYMKMMPSTGRHLSAFIPEQRHMNGGGFLHGGMLMSFADYALFVI | -0.491
HMSDHKNANFTKVVKVAQELLQDEDDKAGITPTLIEEKISAVLAMNRRWAEGLDRAAVADELIRRFSIW | -0.951
HMATPKRGFRKQLAPLVQSGTITREEAGELSRSSGDATALRTKIGELMKAGKLTRKEAGELYSDAFPENA | 0.0387
HMSSEITYDKFIEMVDKDQVKEVTLQSGVLTVVPKIQKSYYQNASYKVNQMEDVDALTKRLEGTGIVFHY | 0.129
HMGGEGQIEIREREGIPAEAWVDGVMRGQTPLRVEHVSIGTRRVELRAEGRPPVAADVLVRPTVTALVELS | -0.192
HMERFRQVNAGMTRDDIYQLLGKPTEKTPFPLKNEEVWSWRHQADGQTVALFNIHLDPDGRVTTTSQSMDL | -1.32
HMAAVPQPQRSETIVYIGGRKFYVHTVQAGETLYSIARLYGVSEQTLVANNPTMADVVKADQNVRIPVPA | -0.00329
HMSLEDMILSLSSRIRRGESLHFRELLVAIETKSGMVTIFMAVLELLKQQVMEMRYEDDDIIFT | -0.567
HMFDKVSVNNLAEAIGRLDGIYQDVLRLYYVHELPSKEIGKILNINHLTVNTRLKRAREKLFKMLKEE | -0.812
HMILNNAKINTELNSLAEFTQRSLDSNTSEIGFYDYKKISYIASFATMKTTNWNVIIRAPINEFMGTVN | 0.203
HMKKMSFKEAFLKYVEIKDNPYNMESVKMLVSLQPLIVKAYSILGVDKVRRLNYVKTKIQDAIINGD | 0.0648
HMGTVFTDIMTDIASGKFPNVFPDSLEAQIQKNVTMAPDKLSATLQYGDKSVILPTTKGKEAAEAAVKAA | -0.648
HMIFDPTTLPEKQLLVYGIISSHPGLNAKQISEMLTLKKSSIETAIKGLRKKEIIEYEGTTRNGG | -0.17

Sequence | soluble fraction (log2)
HMHMELHEKIRLARELNKWSQEEVAEKLEMSPSGYAKIERGETALNIPRLEQIAEIFNIDIWELVKA | -1.48
HMAGDDEIEKIAQDILAAWPDKVAAYQAGNKGLMGLFMGELMKKSQGKANPKVASGIIQKLLD | -0.455
HMKYLREEDYLPIGSIIRLDDRNFRVDHVNFMFKSVSLQDMDLTNSGQPIFRSESLPHIRELYEQQQNELV | -1.09
HMGVSAGQVRGLIRNLIAGEDKSKPLSDLALERELEKREIRISRRTVAKYRAELGIPNSDQRRYLP | 0.0779
HMGPDTVDRTRRFKWVDNEVVVNFGKNAGRTLRDLAENDPGFLRWIVRSDFSDEVRTIANDALMGKFPTRK | -0.151
HMRNISLSLRWHSGEWTADRLKSEVLALPGAMDMTVFEPQSQAYLRVEQGFDTKLLPAGIDVH | -0.958
HMDFYVILGVDRAASLSDVKRAYRRLARKHHPDINPGDPESDAFFMRVTEAYETLVDPDRRQEYDEHG | -1.34
HMALKPKITIEELIRILNESKDLSDSETAKILNKDYTTAKYGKEFTSINVQGARYALDIATNTS | -0.323
HMHLTNIPKGFTPSFDTKQWIVEEFGERYNYDNELKIFINHYRASGTTKSDWQYAFRSWLLRAKKFT | -0.448
HMDETYRRQLEDLAREHGAEYLHGILREVDPASAEAIHANNIKRVIRALEFYHLSGKKISEHNETERQ | -0.00358
HMNIYFNIEDAVANAVVENGKMSAAIYEKNVDTGEVAKLAEVSMPVMGGNINITKTLLTKALISQLP | -0.713
HMAPVLTRREHEVLHLLTDGLDNRTIARNLFISEATVKFHLHNIMGKFGVHRRAALVSTALRG | -0.182
HMSDDSYLVALAEAYKNATSWDIRRQVLSIMTGVSSYKEISRYIPGLTQYRLSISNLHRLQYGRAAPVP | -0.217
HMEAPNELLVPEGARPARADRVLAAAFPEHSRTALQRAFDAGLVRRANLVLSRDTAVAGGDRIAFSLPAV | 0.0302
HMQDFEQNLFDGKSIYDRMLSKFSLHNVDVKQLVAHFKRKDTEQFFADIGRGLITSAQMLGFLQT | -0.219
HMKRGDAYASEMIARLKEAHLIVMEGTLYPLLTRLKNDGLLSYRWEESTQGPPRKYYSITPVG | -0.081
HMTGDIGAEAAKAAALAHAGVTESQTAKMKVDRDWDDGRLEYDVEFDVGRTEYEYTIDGVTGAVLEYEQDI | 0.0208
HMRLATSELVYRIRALIRDQELQPGERLGSERALAQSLGISRSDLRMALAVLEASHEVIRKIGRAGGIVVS | ≥ 0.43
HMDEKSGWLHLAPHEGALRAALYAEHAVQEERTAPDGSQWLRLVLREKHYHQIQSKYNRRLTLHTQPDPS | ≥ 0.43
HMPLSVRQRMSDILSNLKTSDFTNFADLFDPKEGRTGITVTFIAILELLREFLIEVVQSDHYQPLHVRAAS | 0.115
HMEPGEVQVDGLRFIAQPQERNDFEVALEQFRAGNFAAARKSFAAFINTYKQSGYLPSARFW | -0.152
HMLLPGEELRVMIIQEGKEYGQGVGYLDDGTMVVVEDGQRALNRTENVVVTKVLQTTAGRMIFAK | -0.975
HMAQLPADMSKVKSADISEAQLQEFIQKATSSGYNMNQIEMEFAKRGMSENEVSLLRPRLRRLMAS | 0.212
HMQPMIQIHTLANHAPVALHIKRNTQRNIIIRARDASSLNLSIPKWFSPAQLQNWLRDNEATLIRILQQAP | -0.256
HMDDAIAEKTGGAVSSVNQRQAILDHIREAYGIELESLRSTDIERYLDDPEIPEPVKDILRDRLRGAK | 0.0292
HMILNDRSELLDVVKRVIAANPASVADYRKGKKKVLGFLVGQAMKETKGQADPRILNELFLQELGEN | 0.0701

Sequence | soluble fraction (log2)
HMLSNYIGMTLGEAKRNLGQGVNITVNGPNNDNAEVTGQDPTSGSSFDKSKDTITLTT | 0.225
HMSRKERERSQHRRDILAAGEKIFAQKGYFNATIEEIAREAEFSVGTIYNFFSNKETLYQEIIRSI | -0.43
HMRRRTLRQGATGSDVHAVQRLLNVDGAGLRTDGIFGPATERAVIAYQRKHGLAVDGVVGRETWTALLG | -0.0548
HMRMLTKRRQDLLLELLEERGSITVSEVKDMLDASESTIRRDITALDEEGKLVKVFGGAVAAR | -0.465
HMNMPDVTVEWVKEQQAKFGLTDSDLAKSVNIDNANLARIFNQRGLTKIHKALFYYFFRAYGLQ | -1.1
HMLFGKKYLGKVPNDASGRISLWNDIVKHHQELQNIRAIENFTSDNVTVAQGDTKKAVVVTDYVT | -0.152
HMLRTLSTSEFAEAIGISESSARRLADSGDLRIRRTKGGHRKIPAEEAIRYAREIQATVVRPDLLGLST | -0.151
HMTASSYMGMQLGRLEELLKKEVLSLSEKTELKDLISDFDKIPEVVSPKIIGRYLQLKNQHFAKINA | -0.2
HMALTLDEARTQGRVGETFYGYLVALKTDAETEKLVNDINAERKASYQQLAKQNNVSVDDIAKLAGQKLV | -0.113
HMITAEQENILFEKASDDISNNIINKGIWTKAYSQAGGDESKQKAIYIDLLVNYYKMLIKAGEEFEDI | -2.05
HMNSPSKVIDISQLRKGMFVQLDLGWMSHPFAVGSFKVSTDEQIQTLRGLGLSEVRYIPEKSDPA | -0.896
HMKPFVVVPIDQVRVGMFIQLDLGWMQHPFPVGSFRVASEAQIDTLRSLDLESVRYLPAKSDPAFQQP | -0.986
HMITMADKIDTALSEMAANNEKINVSQVAKRLGISNSAIYKFNPEKIPDIQTAQKRQKHKAEAIAVGTEN | 0.0504
HMSGPSDRDLFDEALALLSGSGREPDYHEARIRLGTLVEQFPESKWAEGAKALLSMLDRVSALQV | -0.673
HMNNLKTKELSKIGYTNDKARSLVISIIPKHFKYHSKSEIIELLTNIKNKPEDYVSDEILGKIAETFMEKI | -1.19
HMINDKLQHLFSLFPAMDKELKRKGITRQILWVEYKKQYPLGFGRSQFNSYFAAWKAQVSPS | 0.204
HMPGKVSDAGATAKDNRLFLEAVFWRVRTGSPWRDLPPAFGHWNSQFRRFRRWAKAGVFESLFNA | 0.179
HMSMEIQEIIRQLREKNDWSQEDMAERVGLSKNGYAKIERGETNLNLERLEQIANLFDLSVIDLIEMS | -1.03
HMTGREIDQLFSVVNDLKAKGVGMVFISHHLDEIARIADSVSVLRDGGFVAEVPASTPEKKLVTLMVGRDI | -0.369
HMTKASEELYFRLKEELGTGVIVEHKKYGEGVVTQLDDRLVHIMFQDDTLRMMDLKILANAGLLKVK | -1.87
HMSTEAVVMSSSVSVKSSPDKASTDLFVLHEGTKVRTVSELGDWREIVIADGKKGWVEARTIET | 0.151
HMTVSIGSVIARERRLRGDTQQELAERLGVSKAAVSKWEVGQSIPDVTLLPRIAAYFSLTLDEL | -0.276
HMFQEGLVAPPAYTRPESFRGWEVPEILRSGNFPAIAKWQHEESLRLTRERRPAMLEAYERRT | -0.415
HMNNLVGKTKVLKSNTNIYAYKTMSGKFYSYLPNTRVRVLQDLGYINYIEVIATKRRGYVYENVY | -0.165
